# Tested on: RpsA WT (Mycobacterium tuberculosis H37Rv)
# Test: MST
# Conditions: MST: PBS-T/MST buffer with 0.1% Tween 20, 15 min at room temperature, 50 nM RpsA, tmRNA dilution series from 4.1 uM; EMSA buffer not given in material
substance,measurement,value
tmRNA,Kd,0.0581 µM

# — PMC7239899
